In paper PMC4038590 (PLoS ONE, 2014):

B1: GST-VP16-TAD (Herpes simplex virus VP16 transcription activation domain, both subdomains, residues 427-485) (domain or fragment)
chain: DGEDVAMAHADALDDFDLDMLGDGDSPGPGFTPHDSAPYGALDMADFEFEQMFTDALGI
notes: source: E. coli BL21 pLysS, purified (glutathione-sepharose 4B)
B2: GST-VP16-TADn (Herpes simplex virus VP16 N-terminal transcription activation subdomain, residues 412-452) (domain or fragment)
chain: TAPPTDVSLGDELHLDGEDVAMAHADALDDFDLDMLGDGDS
notes: as for B1
B3: Arabidopsis thaliana Med25 ACtivator Interaction Domain (aMed25-ACID), Med25_(551-680) (domain or fragment, UniProt Q7XYY2 551-680, looked up)
chain: TSQSKYVKVWEGNLSGQRQGQPVLITRLEGYRSASASDSLAANWPPTMQIVRLISQDHMNNKQYVGKADFLVFRAMSQHGFLGQLQDKKLCAVIQLPSQTLLLSVSDKACRLIGMLFPGDMVVFKPQIPN
notes: source: 15N-labelled in M9 medium for NMR
B4: 6 x his-tagged Dreb2a_(168-335) (Dehydration responsive element binding protein 2A, Med25-binding domain 168-253 and activation domain 254-335) (domain or fragment, Arabidopsis thaliana, UniProt O82132 168-335, looked up)
chain: DCESKPFSGGVEPMYCLENGAEEMKRGVKADKHWLSEFEHNYWSDILKEKEKQKEQGIVETCQQQQQDSLSVADYGWPNDVDQSHLDSSDMFDVDELLRDLNGDDVFAGLNQDRYPGNSVANGSYRPESQQSGFDPLQSLNYGIPPFQLEGKDGNGFFDDLSYLDLEN

Columns and labels:
Details in all cases: both partners purified
[1] = target: B3; assay: SPR
[2] = target: T1, human Med25 ACtivator Interaction Domain (hMed25-ACID), 6 x his-tagged human Med25_(394-543) (human, UniProt Q71SY5 394-543); assay: SPR
T1 construct: source: 15N-labelled in M9 medium for NMR
T1 sequence (looked up): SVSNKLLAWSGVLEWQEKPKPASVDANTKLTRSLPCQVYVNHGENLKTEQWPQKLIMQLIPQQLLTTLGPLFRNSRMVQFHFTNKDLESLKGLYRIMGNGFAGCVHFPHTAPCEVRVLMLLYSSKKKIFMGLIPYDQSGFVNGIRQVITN

[3] = target: B4; assay: ITC
[4] = target: B3; assay: ITC

Binder	Kd [1]	Kd [2]	Ka [3]	Kd [3]	dH [4]
B1	1800 nM	2800 nM			
B2	2400 nM	5400 nM			
B3			328000 M⁻¹	3000 nM	
B4					-21.9 kcal/mol
